According to patent US8632772B2, “Methods of treating multiple myeloma using combination therapies based on anti-CS1 antibodies” (Dana-Farber Cancer Institute, priority 2006, dated 2014):

B1: HuLuc63: humanized recombinant monoclonal IgG1 antibody directed to human CS1; heavy chain variable region SEQ ID NO: 5, light chain variable region SEQ ID NO: 6 (antibody, listed as Homo saiens, listed as Homo sapiens, V domains shown)
VH: EVQLVESGGGLVQPGGSLRLSCAASGFDFSRYWMSWVRQAPGKGLEWIGEINPDSSTINYAPSLKDKFIISRDNAKNSLYLQMNSLRAEDTAVYYCARPDGNYWYFDVWGQGTLVTVSS
VL: DIQMTQSPSSLSASVGDRVTITCKASQDVGIAVAWYQQKPGKVPKLLIYWASTRHTGVPDRFSGSGSGTDFTLTISSLQPEDVATYYCQQYSSYPYTFGQGTKVEIK

What was measured:
patient MM cells = experiment: calcein-AM release ADCC assay, autologous patient MM cells with PBMC effector cells; type: cell-based, human
Experimental: (§1) ADCC was measured by calcein-AM release assay, with sensitivity similar to traditional Cr^51 assay, as described previously. After informed consent, peripheral blood mononuclear cells (PBMCs) including natural killer (NK) effector cells were isolated from leukopheresis products of normal donors or peripheral blood from MM patients. Increasing concentrations (0-10 μg/ml) of either HuLuc63 or human isotype control IgG1 MSL109 mAbs were added at effector:target (E:T) ratios of 20:1, in a final volume of 200 μl per well. In some experiments, PBMC effector cells were pretreated with lenalidomide for 3 days at 0.2 μM before HuLuc63-mediated ADCC assays were performed. After 4 h incubation, 100 μl culture supernatants were transferred to a Black ViewPlate™-96 plate and arbitrary fluorescent units (AFU) were read on a fluorometer (Wallac VICTOR2). This assay is valid only if (AFU mean maximum release−medium control release)/(AFU mean spontaneous release−medium control release)>7. Calculation of % specific lysis from triplicate experiments was done using the following equation: […]
HuLuc63-mediated lysis of patient MM cells by effector cells from the same patient was measured using an ADCC assay.
HuLuc63-mediated lysis of patient myeloma cells by PBMC effector cells from the same patient was measured using an ADCC assay. CD138-purified tumor cells from a patient with MM were incubated with autologous effector cells in the presence of serial dilutions of HuLuc63 (solid symbols) or isotype control IgG1 (open symbols). PBMC effector cells were pre-incubated for 3 days in the presence or absence of with lenalidomide […] (square symbols) or vehicle control (round symbols), followed by HuLuc63-mediated ADCC. […] Similarly, pretreatment of effector cells with lenalidomide enhanced HuLuc63-induced lysis of myeloma cell lines (FIGS. 3A and 3B).

myeloma cell lines = experiment: calcein-AM release ADCC assay, myeloma cell lines, effector cells pretreated with lenalidomide; type: cell-based, human
Experimental: as §1
HuLuc63-mediated lysis of patient myeloma cells by PBMC effector cells from the same patient was measured using an ADCC assay. […]

OPM2 myeloma cells = experiment: 51Cr release ADCC assay, OPM2 cells with NK cells from healthy donors; type: cell-based, human; settings: bortezomib 10 nM, 18 hrs; NK effector cells from healthy donors
Experimental: OPM2 myeloma cells were harvested at mid-log phase, suspended at a density of 1.0×10^6 cells/mL in complete media (RPMI with 10% FBS) and treated overnight with or without Velcade (10 nM). Cells were collected, washed, re-suspended at a density of 20×10^6 viable cells/mL, and labeled for one hour with […] Na2[^51Cr]O4 per 10^6 cells. ^51Cr-Labeled cells were washed then added to a 96-well V-bottomed polystyrene plate at a cell density of 15,000 cells per 75 μL RPMI supplemented with 10% heat-inactivated FBS. HuLuc63 and a human IgG1 isotype control antibody MSL-109 were added to target cells for a final antibody concentration ranging from 0.001 to 10 μg/mL. NK cells were enriched from the whole blood of healthy donors using the RosetteSep human NK cell enrichment cocktail (Stem Cell Technologies). The enriched NK cells were added to Velcade treated or untreated OPM2 cells at a ratio of 10:1. After a 4-hour incubation at 37° C., cells were centrifuged and the supernatants measured for released ^51Cr. Maximum release was determined from target cells lysed with […] Digitonin. Antibody independent cellular cytotoxicity (AICC) was determined using target cells, plus media, plus NK cells, while spontaneous lysis was determined using ^51Cr-labelled cells plus media without NK effectors. % Cytotoxicity was calculated as ((sample−AICC)/(Maximum−AICC)*100. […]

CS1 = CS1 protein expression on OPM2 cell line (flow cytometry); type: cell-based, human; settings: OPM2 multiple myeloma cell line
Experimental: The effect of HuLuc63 and bortezomib treatment on expression of CS1 in MM cell lines and mouse xenograft tumors was examined by flow cytometry and immunohistochemistry respectively.
The combination of HuLuc63 with bortezomib was then tested for anti-myeloma activity in vitro using ADCC assays. […] OPM2 cells were pretreated with vehicle control (square symbols) or bortezomib (10 nM; round symbols) for 18 hrs and were then subjected to HuLuc63 mediated ADCC using human NK cells from healthy donors. HuLuc63 (closed symbols) and isotype control antibody (open symbols) were used at doses ranging from 0.001-10 μg/ml.

OPM2 tumor [1] = experiment: OPM2 xenograft mouse model, second experiment (clinic-like bortezomib schedule); type: in vivo, mice; settings: HuLuc63 1 mg/kg ip twice a week, 10 doses; bortezomib 1 mg/kg ip twice weekly weeks 1, 2, 4, 5
Experimental: In a second experiment, HuLuc63 was combined with bortezomib in vivo, using a different dose and dosing schedule for bortezomib, while keeping the original HuLuc63 dose and dosing schedule. OPM2 cells were inoculated into the flanks of SCID mice. When tumors reached an average size of about 100 mm3, animals were randomized into 4 groups of 15 mice each and were treated with 1 mg/kg of antibody administered intraperitoneally twice a week for a total of 10 doses. Bortezomib was administered intraperitoneally at a dose of 1 mg/kg twice for weeks 1 and 2, no treatment for week 3, and 1 mg/kg twice for weeks 4 and 5 for a total of 8 doses. The intent for this dosing schedule was to more closely mimic the dosing schedule of bortezomib in the clinic, where each treatment cycle consists of 2 weeks of dosing, with one week off. Tumor growth was monitored for a period of 1-2 months.

MHC class I = settings: bortezomib treatment of myeloma cells; cited from earlier work
OPM2 tumor [2] = experiment: OPM2 xenograft mouse model, first experiment; type: in vivo, mice; settings: HuLuc63 1 mg/kg ip twice weekly, 6 doses; bortezomib 0.75 mg/kg ip twice a week
Experimental: Six- to eight-week old female IcrTac:ICR-Prkdc^scid mice obtained from Taconic Farms (Germantown, N.Y.) were inoculated with 1×10^7 OPM2 (American Type Culture Collection) cells into the lower right flank. Caliper measurements were performed twice weekly to calculate tumor volume using the following formula: L×W×H/2, where L (length) is the longest side of the tumor in the plane of the animal's back, W (width) is the longest measurement perpendicular to the length and in the same plane and H (height) is taken at the highest point perpendicular to the back of the animal. When tumors reached an average size of about 100 mm^3, animals were randomized into 3 groups of 8-10 mice each and were treated with 1 mg/kg of antibody administered intraperitoneally twice a week for a total of 6 doses. […] Tumor growth was monitored for a period of 1-2 months.

myeloma tumor = settings: myeloma mouse tumor model; cited from earlier work
myeloma cells = settings: cited from earlier work

| Molecule | effect of pre-incubation of PBMC effector cells on HuLuc63-mediated ADCC activity, autologous patient sample (patient MM cells; lenalidomide (0.2 µM) for 3 days before ADCC) | effect of pretreatment of effector cells on HuLuc63-induced lysis of myeloma cell lines (myeloma cell lines) | effect of pre-treatment of OPM2 cells on HuLuc63-mediated ADCC (OPM2 myeloma cells) | change in CS1 expression pre- or post-treatment (CS1) | anti-tumor activity (OPM2 tumor [1]) | cell-surface expression of MHC class I on myeloma cells (MHC class I) | autologous myeloma cell lysis (ADCC) (patient MM cells; patient MM cells with effector cells from the same patient, 0-10 μg/ml, E:T 20:1) | autologous tumor cell lysis in patients with MM resistant or refractory to bortezomib and/or 17-AAG (patient MM cells; resistant or refractory patient tumor cells, autologous effector cells) | anti-tumor activity (OPM2 tumor [2]) | reduction of tumor mass (myeloma tumor) | lysis of myeloma cells via ADCC (myeloma cells) |
| --- | --- | --- | --- | --- | --- | --- | --- | --- | --- | --- | --- |
| Nc1cccc2c1CN(C1CCC(=O)NC1=O)C2=O (stereo not shown) [lenalidomide, reference compound] | significantly increased the ADCC activity | enhanced |  |  |  |  |  |  |  |  |  |
| CC(C)C[C@H](NC(=O)[C@H](Cc1ccccc1)NC(=O)c1cnccn1)B(O)O [bortezomib, reference compound] |  |  | significantly enhanced | no significant change | significant anti-tumor activity | down-modulation |  |  |  |  |  |
| B1 |  |  |  | no significant change | significant anti-tumor activity |  | induced significant autologous myeloma cell lysis | demonstrated | significant anti-tumor activity | more than 50% | effectively mediates lysis |
